Data as given in US20070077597A1 (published 2007).
Values belong to the binder of their own block, whether it stands above or below them.

Legend:
[1] = target: T1, LacI fusion clone 13 (Gt library), … (E. coli, UniProt P03023 1-360); experiment: panning, LacI Gt library on immobilized ROS membranes
T1 construct: also called L20
Procedure: (§1) For screening of the library by “panning,” rhodopsin receptors prepared according to Example 5 were immobilized directly on Immulon 4 (Dynatech) microtiter wells (0.1-1 μg of protein per well) in cold 35 mM HEPES, pH 7.5, containing 0.1 mM EDTA, 50 mM KCl and 1 mM dithiothreitol (HEK/DTT). After shaking for one hour at 4° C., unbound membrane fragments were washed away with HEK/DTT. The wells were blocked with 100 μl 2% BSA in HEKL (35 mM HEPES; 0.1 mM EDTA; 50 mM KCl; 0.2 M α-lactose; pH 7.5, with 1 mM DTT). For rounds 1 and 2, BSA was used for blocking; in later rounds 1% nonfat dry milk was used. For the first round of panning, about 24 wells of a 96-well plate were used. In subsequent rounds, 8 wells with receptor and 8 wells without receptor were prepared.
(§2) The Gt library was thawed (2 mL aliquot) and mixed with 6 mL lysis buffer on ice. Lysis buffer contains 4.25 mL HE (25 mM HEPES: 0.1 mM EDTA; pH 7.5); 1 mL 50% glycerol; 750 μL 10 mg/mL protease-free BSA in HE; 10 μL 0.5 M DTT; and 6.25 μL 0.2 M PMSF. Freshly prepared lysozyme solution (150 μL 10 mg/mL lysozyme in cold HE) was added and the tube was gently inverted several times and incubated on ice for no more than two minutes. The extent of lysis is evidenced by an increase in viscosity that can be observed by noting the slow migration of bubbles to the top of the tube after mixing. Lysis was terminated by mixing in 2 mL 20% lactose and 250 μL 2M KCl. The tube was centrifuged immediately at 13,000×g for 15 minutes at 4° C. and the supernatant transferred to a new tube. A small aliquot of 0.1% (the PRE sample) was saved in a separate, labeled tube. […] Immediately thereafter, the crude bacterial lysate from the peptide library (200 μL) was added to each well and allowed to shake gently for one hour at 4° C. For round 2, this same procedure was followed. In round 3, the amount of lysate used was reduced to 100 μL. In subsequent rounds, the lysate was diluted 1:10 in HEKL/BSA.

[2] = target: LacI fusion clone 16 (Gt library) (E. coli, UniProt P03023 1-360); experiment: as above
Procedure: as §1, §2

[3] = target: LacI fusion clone 4 (Gt library) (E. coli, UniProt P03023 1-360); experiment: as above
Procedure: as §1, §2

[4] = target: LacI fusion clone 15/28 (Gt library) (E. coli, UniProt P03023 1-360); experiment: as above
Procedure: as §1, §2

[5] = target: LacI fusion clone 3 (Gt library, light-activated rhodopsin screen) (E. coli, UniProt P03023 1-360); experiment: as above
Procedure: as §1, §2

[6] = target: LacI fusion clone 19 (Gt library) (E. coli, UniProt P03023 1-360); experiment: as above
Procedure: as §1, §2

[7] = target: LacI fusion clone 11 (Gt library) (E. coli, UniProt P03023 1-360); experiment: as above
Procedure: as §1, §2

[8] = target: LacI fusion clone 18 (Gt library) (E. coli, UniProt P03023 1-360); experiment: as above
Procedure: as §1, §2

[9] = target: LacI fusion clone 27 (Gt library) (E. coli, UniProt P03023 1-360); experiment: as above
Procedure: as §1, §2

[10] = target: LacI fusion clone 6 (Gt library) (E. coli, UniProt P03023 1-360); experiment: as above
Procedure: as §1, §2

[11] = target: LacI fusion clone 26 (Gt library, light-activated rhodopsin screen) (E. coli, UniProt P03023 1-360); experiment: as above
Procedure: as §1, §2

[12] = target: LacI fusion clone 14 (Gt library) (E. coli, UniProt P03023 1-360); experiment: as above
Procedure: as §1, §2

[13] = target: LacI fusion clone 23 (Gt library) (E. coli, UniProt P03023 1-360); experiment: as above
Procedure: as §1, §2

[14] = target: T2, LacI fusion clone 8 (Gt library) (E. coli, UniProt P03023 1-360); experiment: as above
T2 construct: also called Peptide 8; HAP
Procedure: as §1, §2

[15] = target: LacI fusion clone 24 (Gt library) (E. coli, UniProt P03023 1-360); experiment: as above
Procedure: as §1, §2

[16] = target: LacI fusion clone 17 (Gt library, light-activated rhodopsin screen) (E. coli, UniProt P03023 1-360); experiment: as above
Procedure: as §1, §2

[17] = target: LacI fusion clone 33/37 (Gt library, dark-adapted rhodopsin screen) (E. coli, UniProt P03023 1-360); experiment: panning, LacI Gt library on immobilized ROS membranes kept in the dark
[18] = target: LacI fusion clone 21 (Gt library, dark-adapted rhodopsin screen) (E. coli, UniProt P03023 1-360); experiment: as above
[19] = target: LacI fusion clone 26 (Gt library, dark-adapted rhodopsin screen) (E. coli, UniProt P03023 1-360); experiment: as above
[20] = target: LacI fusion clone 41 (Gt library, dark-adapted rhodopsin screen) (E. coli, UniProt P03023 1-360); experiment: as above
[21] = target: LacI fusion clone 7 (Gt library, dark-adapted rhodopsin screen) (E. coli, UniProt P03023 1-360); experiment: as above
[22] = target: LacI fusion clone 17 (Gt library, dark-adapted rhodopsin screen) (E. coli, UniProt P03023 1-360); experiment: as above
[23] = target: LacI fusion clone 2 (Gt library, dark-adapted rhodopsin screen) (E. coli, UniProt P03023 1-360); experiment: as above
[24] = target: LacI fusion clone 3 (Gt library, dark-adapted rhodopsin screen) (E. coli, UniProt P03023 1-360); experiment: as above

binding result [1]: binds
binding result [2]: binds
binding result [3]: binds
binding result [4]: binds
binding result [5]: binds
binding result [6]: binds
binding result [7]: binds
binding result [8]: binds
binding result [9]: binds
binding result [10]: binds
binding result [11]: binds
binding result [12]: binds
binding result [13]: binds
binding result [14]: binds
binding result [15]: binds
binding result [16]: binds
B1: light-activated bovine rhodopsin (metarhodopsin II) in rod outer segment membranes (receptor, UniProt P02699 1-348, looked up)
chain: MNGTEGPNFYVPFSNKTGVVRSPFEAPQYYLAEPWQFSMLAAYMFLLIMLGFPINFLTLYVTVQHKKLRTPLNYILLNLAVADLFMVFGGFTTTLYTSLHGYFVFGPTGCNLEGFFATLGGEIALWSLVVLAIERYVVVCKPMSNFRFGENHAIMGVAFTWVMALACAAPPLVGWSRYIPEGMQCSCGIDYYTPHEETNNESFVIYMFVVHFIIPLIVIFFCYGQLVFTVKEAAAQQQESATTQKAEKEVTRMVIIMVIAFLICWLPYAGVAFYIFTHQGSDFGPIFMTIPAFFAKTSAVYNPVIYIMMNKQFRNCMVTTLCCGKNPLGDDEASTTVSKTETSQVAPA
modifications: retinylidene chromophore on Lys-296 (all-trans after light)
notes: whole, on cells; also called MII

binding result [17]: binds
binding result [18]: binds
binding result [19]: binds
binding result [20]: binds
binding result [21]: binds
binding result [22]: binds
binding result [23]: binds
binding result [24]: binds
B2: dark-adapted bovine rhodopsin in rod outer segment membranes (receptor, UniProt P02699 1-348, looked up)
chain: B1 chain
modifications: 11-cis retinylidene chromophore on Lys-296
notes: whole, on cells; same protein as m1, left in the dark
